{"source": "the MegaScale stability set (Tsuboyama et al. 2023)", "parents": {"B1": {"name": "EEHEE_rd4_0003 (parent)", "chain": "KKVTINGVEIKFNNPEEAVKFALELAKRLNLRIEFHGDQIKIE"}}}
{"variants_of": "B1", "test": "folding stability dG (cDNA display proteolysis); higher = more stable", "conditions": "PBS, room temperature", "units": {"folding stability dG": "kcal/mol"}}
{"variant": "KKVTINGVEIKFNNPEEAVKFALELAKRLNLRIEFHGDWIKIE", "folding stability dG": 3.07}
{"variant": "KKVTINGVEIKFNNPEEAVKFALELAKRLNLRIEFHGDIIKIE", "folding stability dG": 3.05}
{"variant": "KKVTINGVEIKFNNPEEAVKFALELAKRLNLRIEFHGDCIKIE", "folding stability dG": 3.11}
{"variant": "PKVTINGVEIKFNNPEEAVKFALELAKRLNLRIEFHGDQIKIE", "folding stability dG": 2.75}
{"variant": "KKVTINGVEIKFNNPEEHVKFALELAKRLNLRIEFHGDQIKIE", "folding stability dG": 1.7}
{"variant": "KKVTINGVEIKFNNPEECVKFALELAKRLNLRIEFHGDQIKIE", "folding stability dG": 3.5}
{"variant": "KKVTINGVEIKFNNPEELVKFALELAKRLNLRIEFHGDQIKIE", "folding stability dG": 2.59}
{"variant": "KKVTINGVEIKFNNKEEAVKFALELAKRLNLRIEFHGDQIKIE", "folding stability dG": 2.47}
{"variant": "KKVTINGVEIKFNNCEEAVKFALELAKRLNLRIEFHGDQIKIE", "folding stability dG": 3.65}
{"variant": "KKVTINGVEIKFNNVEEAVKFALELAKRLNLRIEFHGDQIKIE", "folding stability dG": 2.67}
{"variant": "KKVTINGVEIKFNNWEEAVKFALELAKRLNLRIEFHGDQIKIE", "folding stability dG": 3.67}
{"variant": "KKVTINGVEIKTNNPEEAVKFALELAKRLNLRIEFHGDQIKIE", "folding stability dG": 1.7}
{"variant": "KKVTINGVEIKGNNPEEAVKFALELAKRLNLRIEFHGDQIKIE", "folding stability dG": 1.55}
{"variant": "KKVTINGVEIKFNNPEEAVKFWLELAKRLNLRIEFHGDQIKIE", "folding stability dG": 2.68}
{"variant": "KKVTINGVEIKFNNPEEAVKFHLELAKRLNLRIEFHGDQIKIE", "folding stability dG": 1.32}
{"variant": "KKVTINGVEIKFNNPEEAVKFYLELAKRLNLRIEFHGDQIKIE", "folding stability dG": 2.39}
{"variant": "KKVTINGVEIKFNNPFEAVKFALELAKRLNLRIEFHGDQIKIE", "folding stability dG": 2.69}
{"variant": "KKVTINGVEIKFNNPDEAVKFALELAKRLNLRIEFHGDQIKIE", "folding stability dG": 2.53}
{"variant": "KKVTINGVEIKFNNPLEAVKFALELAKRLNLRIEFHGDQIKIE", "folding stability dG": 2.69}
{"variant": "KKVTINGVEIKFNNPQEAVKFALELAKRLNLRIEFHGDQIKIE", "folding stability dG": 2.6}
{"variant": "KKVTINGVEIKFNNPPEAVKFALELAKRLNLRIEFHGDQIKIE", "folding stability dG": 2.08}
{"variant": "KKVTINGVEIKFNNPEEAVKFALELAVRLNLRIEFHGDQIKIE", "folding stability dG": 2.24}
{"variant": "KKVTINGVEIKFNNPEEAVKFALELAIRLNLRIEFHGDQIKIE", "folding stability dG": 2.4}
{"variant": "KKVTINGVEIKFNNPEEAVKFALELAHRLNLRIEFHGDQIKIE", "folding stability dG": 2.48}
{"variant": "KKVTINGVEIKFNNPEEAVKFALELTKRLNLRIEFHGDQIKIE", "folding stability dG": 1.92}
{"variant": "KKVTINGVEIKFNNPEEAVKFALELWKRLNLRIEFHGDQIKIE", "folding stability dG": 2.14}
{"variant": "KKVTINGVEIKFNNPEEAVKFALELGKRLNLRIEFHGDQIKIE", "folding stability dG": 1.91}
{"variant": "KKVTINGVEIKFNNPEEAVKFALELLKRLNLRIEFHGDQIKIE", "folding stability dG": 2.52}
{"variant": "KKVTINGVVIKFNNPEEAVKFALELAKRLNLRIEFHGDQIKIE", "folding stability dG": 2.94}
{"variant": "KKVTINGVPIKFNNPEEAVKFALELAKRLNLRIEFHGDQIKIE", "folding stability dG": 2.3}
{"variant": "KKVTINGVQIKFNNPEEAVKFALELAKRLNLRIEFHGDQIKIE", "folding stability dG": 2.46}
{"variant": "KKVTINGVEIKFNNPEEAVKFALRLAKRLNLRIEFHGDQIKIE", "folding stability dG": 2.55}
{"variant": "KKVTIRGVEIKFNNPEEAVKFALELAKRLNLRIEFHGDQIKIE", "folding stability dG": 2.25}
{"variant": "KKVTICGVEIKFNNPEEAVKFALELAKRLNLRIEFHGDQIKIE", "folding stability dG": 4.2}
{"variant": "KKHTINGVEIKFNNPEEAVKFALELAKRLNLRIEFHGDQIKIE", "folding stability dG": 1.86}
{"variant": "KKFTINGVEIKFNNPEEAVKFALELAKRLNLRIEFHGDQIKIE", "folding stability dG": 2.27}
{"variant": "KKRTINGVEIKFNNPEEAVKFALELAKRLNLRIEFHGDQIKIE", "folding stability dG": 1.95}
{"variant": "KKITINGVEIKFNNPEEAVKFALELAKRLNLRIEFHGDQIKIE", "folding stability dG": 2.48}
{"variant": "KKVTINGVEIKFNNPEEAVKFALELAKRLNLRIEFHGDQIKRE", "folding stability dG": 1.44}
{"variant": "KKVTINGVEIKFNNPEEAVKFALELAKRNNLRIEFHGDQIKIE", "folding stability dG": 1.72}
{"variant": "KKVTINNVEIKFNNPEEAVKFALELAKRLNLRIEFHGDQIKIE", "folding stability dG": 2.11}
{"variant": "KKVTINGVEIKFNNPEEAVKFALELAKKLNLRIEFHGDQIKIE", "folding stability dG": 2.33}
{"variant": "KKVTINGVEIKFNNPEEAVKFALELAKSLNLRIEFHGDQIKIE", "folding stability dG": 2.35}
{"variant": "KKVTINGVEIKFNNPEEAVKFALELAKRLNLRIEFHIDQIKIE", "folding stability dG": 2.35}
{"variant": "KKVTINGVEIKFNNPEEAVKFALELAKRLNLRIEFHLDQIKIE", "folding stability dG": 2.45}
{"variant": "KKVTINGVEIKFNNPEEAVKFANELAKRLNLRIEFHGDQIKIE", "folding stability dG": 1.95}
{"variant": "KKVTINGVEIKFNNPEEAVKFACELAKRLNLRIEFHGDQIKIE", "folding stability dG": 3.18}
{"variant": "KKVTINGVEIKFNNPEEAVKFAEELAKRLNLRIEFHGDQIKIE", "folding stability dG": 2.12}
{"variant": "KKVTINGVEIKFNNPEEAVKFAFELAKRLNLRIEFHGDQIKIE", "folding stability dG": 2.46}
{"variant": "KKVTINGVEIKFNNPEEAVRFALELAKRLNLRIEFHGDQIKIE", "folding stability dG": 2.81}
{"variant": "KKVTINGVEIKFNNPEEAVSFALELAKRLNLRIEFHGDQIKIE", "folding stability dG": 2.24}
{"variant": "KKVTINGVEIKFNNPEEAVGFALELAKRLNLRIEFHGDQIKIE", "folding stability dG": 1.77}
{"variant": "KKVTINGVEIKFNNPEEAVPFALELAKRLNLRIEFHGDQIKIE", "folding stability dG": 1.69}
{"variant": "KKVTINGVEIKFNNPEEAVYFALELAKRLNLRIEFHGDQIKIE", "folding stability dG": 2.47}
{"variant": "KKVTINGVEIKFNNPEEAVCFALELAKRLNLRIEFHGDQIKIE", "folding stability dG": 3.78}
{"variant": "KKVTINGVEINFNNPEEAVKFALELAKRLNLRIEFHGDQIKIE", "folding stability dG": 2.83}
{"variant": "KKVTINGVEIWFNNPEEAVKFALELAKRLNLRIEFHGDQIKIE", "folding stability dG": 3.53}
{"variant": "KKVTINGVEIQFNNPEEAVKFALELAKRLNLRIEFHGDQIKIE", "folding stability dG": 2.72}
{"variant": "KKVTINGVEIKFNNPEEAVKFALELAKRLRLRIEFHGDQIKIE", "folding stability dG": 2.61}
